18 molecules from patent publication US20030068675, “Position dependent recognition of GNN nucleotide triplets by zinc fingers” (published 2003) can be followed below.

Assay in all cases: EMSA
Details in all cases: tags: MBP fusion

The target in one series is ZFP SBS#490 (synthetic). In outline: (§1)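 Purified ZFP was titrated against labeled double-stranded target (1 nM or lower, at least 10-fold below expected Kd) carrying the natural binding site with flanks. Binding buffer was 10 mM Tris pH 7.5, 100 mM KCl, 1 mM MgCl2, 0.1 mM ZnCl2, 5 mM DTT, 10% glycerol, 0.02% BSA, with equilibration for at least 45 min. Bound and free target were separated on a 10% polyacrylamide gel.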

The target of a further series is T1, ZFP SBS#1246 (synthetic).
T1 chain: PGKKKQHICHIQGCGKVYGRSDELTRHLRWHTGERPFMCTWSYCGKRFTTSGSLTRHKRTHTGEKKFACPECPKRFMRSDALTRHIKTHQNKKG
The method, boiled down:
as §1

The target in another series is T2, ZFP SBS#1247 (synthetic).
T2 chain: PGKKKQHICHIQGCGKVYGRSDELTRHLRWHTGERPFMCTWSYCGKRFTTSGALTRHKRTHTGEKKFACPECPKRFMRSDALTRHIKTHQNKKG
The method, boiled down: as §1

For another series, the target named is T3, ZFP SBS#1245 (synthetic).
T3 chain: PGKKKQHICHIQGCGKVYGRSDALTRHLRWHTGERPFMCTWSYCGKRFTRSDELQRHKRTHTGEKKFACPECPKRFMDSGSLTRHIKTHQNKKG
The method, boiled down:
as §1

The next series deals with ZFP SBS#1244 (synthetic). The method, boiled down: as §1
For a further series, the target named is T4, ZFP SBS#261 (synthetic).
T4 chain: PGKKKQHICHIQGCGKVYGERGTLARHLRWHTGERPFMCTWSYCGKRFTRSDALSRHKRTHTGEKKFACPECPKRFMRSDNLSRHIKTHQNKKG
The method, boiled down: as §1

For the next series, the target named is ZFP SBS#1227 (synthetic). In outline:
as §1

Another series concerns the target T5, ZFP SBS#1232 (synthetic).
T5 chain: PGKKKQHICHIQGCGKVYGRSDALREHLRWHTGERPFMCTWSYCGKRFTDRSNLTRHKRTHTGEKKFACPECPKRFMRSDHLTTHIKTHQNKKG
In outline:
as §1

The target in another series is T6, ZFP SBS#1233 (synthetic).
T6 chain: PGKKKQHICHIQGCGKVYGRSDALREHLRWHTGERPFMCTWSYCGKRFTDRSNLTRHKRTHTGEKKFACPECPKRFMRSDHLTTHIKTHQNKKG
In outline:
as §1

A further series addresses T7, ZFP SBS#1229 (synthetic).
T7 chain: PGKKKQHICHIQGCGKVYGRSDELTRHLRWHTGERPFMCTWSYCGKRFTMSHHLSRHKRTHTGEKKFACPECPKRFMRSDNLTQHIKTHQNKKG
In outline:
as §1

The target of a further series is ZFP SBS#1140 (synthetic). The method, boiled down:
as §1

The target in the next series is T8, ZFP SBS#1231 (synthetic).
T8 chain: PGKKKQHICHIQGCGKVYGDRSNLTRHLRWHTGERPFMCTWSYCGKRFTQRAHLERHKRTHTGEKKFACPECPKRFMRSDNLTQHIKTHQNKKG
The method, boiled down:
as §1

Another series has as its target ZFP SBS#1230 (synthetic). The method, boiled down: as §1
For another series, the target named is T9, ZFP SBS#1253 (synthetic).
T9 chain: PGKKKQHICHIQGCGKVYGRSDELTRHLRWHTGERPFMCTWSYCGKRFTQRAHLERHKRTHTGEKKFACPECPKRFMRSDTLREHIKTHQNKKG
In outline: as §1

The target in another series is T10, ZFP SBS#1249 (synthetic).
T10 chain: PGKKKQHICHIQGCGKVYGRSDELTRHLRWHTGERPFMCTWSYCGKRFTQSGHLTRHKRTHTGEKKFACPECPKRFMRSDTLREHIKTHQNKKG
In outline:
as §1

In another series the target is ZFP SBS#485 (synthetic). The method, boiled down:
as §1

The next series deals with T11, ZFP SBS#487 (synthetic).
T11 chain: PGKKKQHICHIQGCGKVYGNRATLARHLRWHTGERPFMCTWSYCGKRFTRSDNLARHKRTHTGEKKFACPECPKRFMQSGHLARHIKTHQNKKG
The method, boiled down:
as §1

The next series has as its target T12, ZFP SBS#1228 (synthetic).
T12 chain: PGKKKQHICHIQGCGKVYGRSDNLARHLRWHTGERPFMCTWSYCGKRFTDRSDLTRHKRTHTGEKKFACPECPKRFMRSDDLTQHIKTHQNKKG
In outline:
as §1

In another series the target is T13, ZFP SBS#1139 (synthetic).
T13 chain: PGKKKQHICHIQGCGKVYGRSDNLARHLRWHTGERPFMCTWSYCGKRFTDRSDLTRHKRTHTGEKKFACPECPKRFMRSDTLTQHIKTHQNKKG
In outline:
as §1

The next series addresses T14, ZFP SBS#1243 (synthetic).
T14 chain: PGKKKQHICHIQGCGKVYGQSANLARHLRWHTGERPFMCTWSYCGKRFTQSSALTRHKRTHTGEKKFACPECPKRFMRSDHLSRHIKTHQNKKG
The method, boiled down: as §1

For another series, the target named is T15, ZFP SBS#1242 (synthetic).
T15 chain: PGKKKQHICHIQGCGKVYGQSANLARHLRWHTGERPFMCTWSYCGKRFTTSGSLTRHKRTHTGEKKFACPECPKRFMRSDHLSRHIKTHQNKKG
In outline: as §1

The target in another series is ZFP SBS#1237 (synthetic). In outline: as §1
A further series concerns the target ZFP SBS#1250 (synthetic). In outline:
as §1

For a further series, the target named is T16, ZFP SBS#1240 (synthetic, UniProt P08047).
T16 chain: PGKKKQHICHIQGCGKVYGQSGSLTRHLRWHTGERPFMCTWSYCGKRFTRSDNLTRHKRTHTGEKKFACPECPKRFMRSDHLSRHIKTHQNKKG
The method, boiled down: as §1

Another series concerns the target T17, ZFP SBS#488 (synthetic).
T17 chain: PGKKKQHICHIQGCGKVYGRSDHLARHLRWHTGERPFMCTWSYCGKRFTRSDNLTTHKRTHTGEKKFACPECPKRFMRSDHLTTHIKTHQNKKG
The method, boiled down:
as §1

In a further series the target is T18, ZFP SBS#1224 (synthetic).
T18 chain: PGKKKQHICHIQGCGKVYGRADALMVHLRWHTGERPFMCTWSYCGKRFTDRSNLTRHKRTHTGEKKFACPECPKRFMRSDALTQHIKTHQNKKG
In outline:
as §1

The next series has as its target T19, ZFP SBS#1223 (synthetic).
T19 chain: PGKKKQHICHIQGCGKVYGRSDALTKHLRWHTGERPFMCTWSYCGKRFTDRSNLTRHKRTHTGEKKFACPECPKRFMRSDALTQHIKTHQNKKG
In outline:
as §1

In a further series the target is T20, ZFP SBS#1141 (synthetic).
T20 chain: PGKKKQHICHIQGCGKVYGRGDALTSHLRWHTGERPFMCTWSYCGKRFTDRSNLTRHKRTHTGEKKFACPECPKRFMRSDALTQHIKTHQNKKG
In outline:
as §1

A further series addresses T21, ZFP SBS#1003 (synthetic).
T21 chain: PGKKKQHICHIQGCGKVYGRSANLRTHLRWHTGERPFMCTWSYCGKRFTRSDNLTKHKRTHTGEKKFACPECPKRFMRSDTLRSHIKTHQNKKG
In outline:
as §1

Another series deals with ZFP SBS#998 (synthetic). In outline:
as §1

The next series deals with T22, ZFP SBS#1255 (synthetic).
T22 chain: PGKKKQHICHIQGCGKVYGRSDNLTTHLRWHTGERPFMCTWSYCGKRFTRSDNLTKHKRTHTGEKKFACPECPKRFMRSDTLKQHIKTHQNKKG
In outline:
as §1

Another series deals with T23, ZFP SBS#1004 (synthetic).
T23 chain: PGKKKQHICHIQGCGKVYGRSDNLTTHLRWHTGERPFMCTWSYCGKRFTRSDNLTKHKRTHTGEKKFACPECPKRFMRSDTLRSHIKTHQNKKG
The method, boiled down:
as §1

For the next series, the target named is T24, ZFP SBS#1020 (synthetic).
T24 chain: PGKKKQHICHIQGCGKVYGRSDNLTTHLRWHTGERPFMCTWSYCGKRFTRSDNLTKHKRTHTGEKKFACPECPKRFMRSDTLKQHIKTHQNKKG
In outline: as §1

Another series has as its target T25, ZFP SBS#1238 (synthetic).
T25 chain: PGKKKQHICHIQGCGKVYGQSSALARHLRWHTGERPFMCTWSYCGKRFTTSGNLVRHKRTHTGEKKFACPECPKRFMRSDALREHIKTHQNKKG
In outline: as §1

Chain of ZFP SBS#485 (synthetic) (chain, as listed by the source): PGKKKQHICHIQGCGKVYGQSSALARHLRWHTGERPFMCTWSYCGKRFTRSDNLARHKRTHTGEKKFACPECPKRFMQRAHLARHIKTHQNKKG
Chain of ZFP SBS#998 (synthetic) (chain, as listed by the source): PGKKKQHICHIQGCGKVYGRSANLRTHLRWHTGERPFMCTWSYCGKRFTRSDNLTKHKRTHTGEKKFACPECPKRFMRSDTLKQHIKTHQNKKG
Chain of ZFP SBS#1140 (synthetic) (chain, as listed by the source): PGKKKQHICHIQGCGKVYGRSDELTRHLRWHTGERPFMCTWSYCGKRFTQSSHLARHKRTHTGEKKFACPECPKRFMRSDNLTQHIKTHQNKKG
Chain of ZFP SBS#1227 (synthetic) (chain, as listed by the source): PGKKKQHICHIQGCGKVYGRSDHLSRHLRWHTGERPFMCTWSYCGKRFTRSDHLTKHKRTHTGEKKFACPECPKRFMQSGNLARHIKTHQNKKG
Chain of ZFP SBS#1237 (synthetic) (chain, as listed by the source): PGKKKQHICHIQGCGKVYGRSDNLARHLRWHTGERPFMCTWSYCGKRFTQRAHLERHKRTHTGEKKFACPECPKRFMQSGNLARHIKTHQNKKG
Chain of ZFP SBS#490 (synthetic) (chain, as listed by the source): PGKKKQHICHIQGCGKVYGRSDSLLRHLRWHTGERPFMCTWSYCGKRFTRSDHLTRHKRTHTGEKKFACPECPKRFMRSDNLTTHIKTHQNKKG
Chain of ZFP SBS#1230 (synthetic) (chain, as listed by the source): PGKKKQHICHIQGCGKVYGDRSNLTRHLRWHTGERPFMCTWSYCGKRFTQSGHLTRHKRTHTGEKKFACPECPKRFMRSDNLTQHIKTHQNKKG
Chain of ZFP SBS#1250 (synthetic) (chain, as listed by the source): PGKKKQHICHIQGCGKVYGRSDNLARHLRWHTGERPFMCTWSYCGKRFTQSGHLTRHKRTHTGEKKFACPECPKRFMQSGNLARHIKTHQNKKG

B1: TAGGGGGTGG (dsDNA)
DNA 1: TAGGGGGTGG
DNA 2: CCACCCCCTA
The Kd is the free concentration of one partner at which half of the binding sites on the other are occupied at equilibrium, for simple one-to-one binding. The low end stands for tighter binding, the high end for weaker binding. As for B1, in the series with ZFP SBS#490, binding was put at a Kd of 1.5 nM.

B2: GTGGTTGCG (dsDNA)
DNA 1: GTGGTTGCG
DNA 2: CGCAACCAC
Take B2: the Kd with ZFP SBS#1246 stood at 0.051 nM; with ZFP SBS#1247, 0.117 nM.

B3: GTCGCGGTG (dsDNA)
DNA 1: GTCGCGGTG
DNA 2: CACCGCGAC
Take B3: the dissociation constant (Kd) with ZFP SBS#1245 is 0.102 nM; with ZFP SBS#1244, 0.044 nM.

B4: GAGGTGGCC (dsDNA)
DNA 1: GAGGTGGCC
DNA 2: GGCCACCTC
In the series with ZFP SBS#261, B4 yielded a Kd of 0.5 nM.

B5: GAATAGGGG (dsDNA)
DNA 1: GAATAGGGG
DNA 2: CCCCTATTC
Molecule B5 had a dissociation constant Kd with ZFP SBS#1227 of 25 nM.

B6: TGGGACCTG (dsDNA)
DNA 1: TGGGACCTG
DNA 2: CAGGTCCCA
As to B6, the figures for the Kd with ZFP SBS#1232 and with ZFP SBS#1233 were 0.113 nM and 0.635 nM, respectively.

B7: AAGGGTGCG (dsDNA)
DNA 1: AAGGGTGCG
DNA 2: CGCACCCTT
With B7, the figures for the Kd with ZFP SBS#1229 and in the series with ZFP SBS#1140 were 8.2 nM and 0.3 nM, respectively.

B8: AAGGGAGAC (dsDNA)
DNA 1: AAGGGAGAC
DNA 2: GTCTCCCTT
Consider B8, for which the equilibrium dissociation constant (Kd) was determined as 0.213 nM in the series with ZFP SBS#1231 and 0.383 nM in the series with ZFP SBS#1230.

B9: CCGGGAGCG (dsDNA)
DNA 1: CCGGGAGCG
DNA 2: CGCTCCCGG
Consider B9, for which the Kd in the series with ZFP SBS#1253 worked out at 0.228 nM; with ZFP SBS#1249, 0.26 nM.

B10: GGAGAGGTTT (dsDNA)
DNA 1: GGAGAGGTTT
DNA 2: AAACCTCTCC
B10: the figures for the Kd in the series with ZFP SBS#485 and with ZFP SBS#487 were 110 nM and 76.9 nM, respectively.

B11: ACGGCCGAG (dsDNA)
DNA 1: ACGGCCGAG
DNA 2: CTCGGCCGT
On to B11, for which the equilibrium dissociation constant (Kd) with ZFP SBS#1228 was 12 nM; in the series with ZFP SBS#1139 it was 0.535 nM.

B12: GGGGTTGAA (dsDNA)
DNA 1: GGGGTTGAA
DNA 2: TTCAACCCC
Consider B12, for which the Kd with ZFP SBS#1243 was 0.101 nM; with ZFP SBS#1242, 0.02 nM.

B13: GAAGGAGAG (dsDNA)
DNA 1: GAAGGAGAG
DNA 2: CTCTCCTTC
With B13, the figures for the equilibrium dissociation constant (Kd) in the series with ZFP SBS#1237 and with ZFP SBS#1250 were 0.065 nM and 0.31 nM, respectively.

B14: GGGGAGGCA (dsDNA)
DNA 1: GGGGAGGCA
DNA 2: TGCCTCCCC
With B14, the Kd with ZFP SBS#1240 amounted to 0.056 nM.

B15: TGGTAGGGGG (dsDNA)
DNA 1: TGGTAGGGGG
DNA 2: CCCCCTACCA
Molecule B15 displayed a Kd with ZFP SBS#488 of 35 nM.

B16: ATGGACTTG (dsDNA)
DNA 1: ATGGACTTG
DNA 2: CAAGTCCAT
Take B16: the dissociation constant (Kd) in the series with ZFP SBS#1224 amounted to 12 nM; with ZFP SBS#1223, 7 nM; in the series with ZFP SBS#1141, 1.7 nM.

B17: ACGTAGTAG (dsDNA)
DNA 1: ACGTAGTAG
DNA 2: CTACTACGT
Consider B17, for which the Kd worked out at 0.118 nM in the series with ZFP SBS#1003; 0.23 nM with ZFP SBS#998; 0.69 nM with ZFP SBS#1255; 1.4 nM with ZFP SBS#1004; 0.69 nM with ZFP SBS#1020.

B18: CTGGATGTT (dsDNA)
DNA 1: CTGGATGTT
DNA 2: AACATCCAG
Take B18: binding in the series with ZFP SBS#1238 was put at a Kd of 0.313 nM.
